According to patent US20220135701A1 (Genentech, published 2022):

What was measured:
mouse MerTK [1] = biological target: T1, mouse MerTK (mouse, UniProt Q60805 23-496); experiment: SPR BIAcore T200, Ab captured, 37C
T1 construct: also called MuMER
T1 sequence (looked up): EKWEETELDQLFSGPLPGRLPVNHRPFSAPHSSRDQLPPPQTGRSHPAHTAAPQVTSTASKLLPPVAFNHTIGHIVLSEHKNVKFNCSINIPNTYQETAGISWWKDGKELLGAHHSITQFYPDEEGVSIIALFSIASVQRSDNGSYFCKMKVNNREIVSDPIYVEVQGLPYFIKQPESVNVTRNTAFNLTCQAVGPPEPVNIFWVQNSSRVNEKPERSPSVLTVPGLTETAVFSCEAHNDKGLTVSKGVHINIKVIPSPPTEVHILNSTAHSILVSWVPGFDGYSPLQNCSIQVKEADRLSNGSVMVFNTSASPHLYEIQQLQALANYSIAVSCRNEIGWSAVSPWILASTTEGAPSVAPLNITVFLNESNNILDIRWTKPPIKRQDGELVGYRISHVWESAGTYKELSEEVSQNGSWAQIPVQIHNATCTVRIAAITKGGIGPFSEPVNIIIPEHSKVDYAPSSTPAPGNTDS
Description: (§1) All binding affinity determinations were obtained using Surface Plasmon Resonance (SPR) measurements from a BIAcore™-T200 instrument. Briefly, each rabbit or humanized antibody was captured to achieve approximately 100 RU (Response Units). Then, 3-fold serial dilutions of MerTK from various species (0.4 nM to 100 nM) diluted in HBS-EP buffer (0.01M HEPES pH 7.4, 0.15M NaCl, 3 mM EDTA and 0.05% v/v surfactant P20) was injected into the BIAcore™-T200 instrument at 25° C. or 37° C. with a flow rate of 30 μl/min. Association rates (kₒₙ) and dissociation rates (koff) were calculated using a simple one-to-one Langmuir binding model (BIAcore T200 evaluation software version 2.0). The equilibrium dissociation constant (KD) was calculated as the ratio koff/kₒₙ.

human MerTK [2] = biological target: T2, human MerTK (human, UniProt Q12866 26-499); experiment: SPR BIAcore T200, Ab captured, 37C
T2 construct: also called HuMER
T2 sequence: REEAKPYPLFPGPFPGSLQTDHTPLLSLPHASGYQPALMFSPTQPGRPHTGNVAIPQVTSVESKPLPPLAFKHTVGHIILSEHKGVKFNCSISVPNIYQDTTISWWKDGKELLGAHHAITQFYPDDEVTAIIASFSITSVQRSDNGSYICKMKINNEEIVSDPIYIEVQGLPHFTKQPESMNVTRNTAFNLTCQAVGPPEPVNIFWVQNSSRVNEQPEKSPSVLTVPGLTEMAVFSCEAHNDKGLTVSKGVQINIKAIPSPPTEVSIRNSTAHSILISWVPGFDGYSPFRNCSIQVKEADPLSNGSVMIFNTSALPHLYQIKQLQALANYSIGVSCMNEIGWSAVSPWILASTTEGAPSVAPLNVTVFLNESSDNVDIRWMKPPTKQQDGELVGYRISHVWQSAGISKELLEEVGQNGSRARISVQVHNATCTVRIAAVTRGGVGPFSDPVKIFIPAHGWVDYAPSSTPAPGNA
Description: as §1

rat MerTK = biological target: T3, rat MerTK (rat, UniProt P57097 23-496, limits assumed); experiment: SPR BIAcore T200, Ab captured, 37C
T3 construct: Soluble analyte in SPR
T3 sequence (looked up): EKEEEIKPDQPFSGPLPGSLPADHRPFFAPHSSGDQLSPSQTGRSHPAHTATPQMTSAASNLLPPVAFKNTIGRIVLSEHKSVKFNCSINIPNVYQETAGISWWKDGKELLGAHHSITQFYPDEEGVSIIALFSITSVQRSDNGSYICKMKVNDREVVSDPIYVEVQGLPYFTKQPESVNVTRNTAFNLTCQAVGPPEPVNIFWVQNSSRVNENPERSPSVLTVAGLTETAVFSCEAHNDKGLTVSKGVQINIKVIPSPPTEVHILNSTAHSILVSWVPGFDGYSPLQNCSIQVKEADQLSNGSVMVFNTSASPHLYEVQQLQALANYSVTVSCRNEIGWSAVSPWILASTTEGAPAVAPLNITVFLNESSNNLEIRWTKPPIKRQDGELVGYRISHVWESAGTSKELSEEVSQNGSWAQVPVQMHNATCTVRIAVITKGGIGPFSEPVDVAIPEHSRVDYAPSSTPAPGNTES
Description: as §1

cynomolgus monkey MerTK [3] = biological target: T4, cynomolgus monkey MerTK (cynomolgus monkey, UniProt A0A2K5V1H9 32-505); experiment: SPR BIAcore T200, Ab captured, 37C
T4 construct: Soluble analyte in SPR; also called Cyno MerTK
T4 sequence: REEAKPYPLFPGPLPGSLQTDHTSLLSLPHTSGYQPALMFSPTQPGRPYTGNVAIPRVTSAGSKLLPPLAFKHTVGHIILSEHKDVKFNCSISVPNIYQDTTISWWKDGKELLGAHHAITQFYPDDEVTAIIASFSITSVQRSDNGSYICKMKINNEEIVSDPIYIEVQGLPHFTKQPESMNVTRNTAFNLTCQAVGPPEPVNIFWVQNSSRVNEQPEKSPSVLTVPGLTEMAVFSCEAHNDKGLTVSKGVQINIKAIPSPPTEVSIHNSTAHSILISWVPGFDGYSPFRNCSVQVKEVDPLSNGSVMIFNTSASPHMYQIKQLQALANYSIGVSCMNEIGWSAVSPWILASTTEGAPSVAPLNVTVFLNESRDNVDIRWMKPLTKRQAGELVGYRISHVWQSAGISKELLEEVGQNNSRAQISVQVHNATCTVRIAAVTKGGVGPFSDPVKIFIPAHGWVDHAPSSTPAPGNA
Description: as §1

[4] = biological target: T5, human MerTK on human macrophages (human, UniProt Q12866 21-999); experiment: cell-based or functional assay
T5 sequence: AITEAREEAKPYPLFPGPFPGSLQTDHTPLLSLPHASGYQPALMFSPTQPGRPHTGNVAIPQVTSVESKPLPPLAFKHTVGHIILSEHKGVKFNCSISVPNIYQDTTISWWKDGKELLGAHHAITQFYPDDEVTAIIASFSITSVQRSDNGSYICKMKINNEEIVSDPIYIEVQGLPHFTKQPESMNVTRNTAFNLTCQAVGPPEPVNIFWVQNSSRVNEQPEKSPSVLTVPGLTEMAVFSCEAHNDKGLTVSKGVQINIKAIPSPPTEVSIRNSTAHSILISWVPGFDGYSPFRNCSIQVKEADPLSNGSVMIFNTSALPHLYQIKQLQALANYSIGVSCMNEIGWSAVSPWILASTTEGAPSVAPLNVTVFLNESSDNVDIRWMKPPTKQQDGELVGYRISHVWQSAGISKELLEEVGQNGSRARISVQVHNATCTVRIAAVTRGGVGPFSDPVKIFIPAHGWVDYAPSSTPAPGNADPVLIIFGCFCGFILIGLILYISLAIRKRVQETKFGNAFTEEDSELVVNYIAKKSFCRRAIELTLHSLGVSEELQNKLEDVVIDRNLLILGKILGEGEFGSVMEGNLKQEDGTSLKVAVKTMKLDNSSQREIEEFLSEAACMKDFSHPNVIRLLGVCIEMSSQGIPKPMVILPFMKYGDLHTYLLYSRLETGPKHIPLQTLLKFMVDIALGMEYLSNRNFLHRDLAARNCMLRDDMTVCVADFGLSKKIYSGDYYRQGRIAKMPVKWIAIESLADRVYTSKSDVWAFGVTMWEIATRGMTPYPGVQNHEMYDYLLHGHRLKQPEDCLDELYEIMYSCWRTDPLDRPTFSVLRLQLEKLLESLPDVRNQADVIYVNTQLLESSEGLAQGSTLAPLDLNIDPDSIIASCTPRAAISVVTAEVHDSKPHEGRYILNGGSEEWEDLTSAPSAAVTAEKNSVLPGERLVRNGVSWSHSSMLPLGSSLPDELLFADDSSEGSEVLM

MuMER (E23-S496) = biological target: T6, MuMER (E23-S496) (mouse, UniProt Q60805 23-496); experiment: SPR BIAcore T200, Ab captured, 25C
T6 construct: range 23-496; also called mouse MerTK extracellular domain
T6 sequence (looked up): T1 sequence (looked up)
Description: (§2) Binding affinity determinations were obtained using Surface Plasmon Resonance (SRP) measurements from a BIAcore™-T200 instrument. Briefly, each rabbit antibody was captured to achieve approximately 100 RU (Response Units). Then, 3-fold serial dilutions of the various MerTK domains (0.4 nM to 100 nM) diluted in HBS-EP buffer (0.01M HEPES pH 7.4, 0.15M NaCl, 3 mM EDTA and 0.05% v/v surfactant P20) was injected into the BIAcore™-T200 instrument at 25° C. or 37° C. with a flow rate of 30 μl/min. Association rates (kₒₙ) and dissociation rates (koff) were calculated using a simple one-to-one Langmuir binding model (BIAcore T200 evaluation software version 2.0). The equilibrium dissociation constant (KD) was calculated as the ratio koff/kₒₙ.
(§3) Antibody epitope determination was assessed by BIAcore analysis for rabbit antibodies binding against both the human and mouse MerTK extracellular domain (HuMER R26-A499 and MuMER E23-S496), Ig1&2 domain, Ig1-only domain, and Ig2-only domain (TABLE 18). Human MerTK and its domains are shown in light gray, while mouse MerTK and its domains are shown in dark gray.

HuMER (R26-A499) = biological target: T7, HuMER (R26-A499) (human, UniProt Q12866 26-499); experiment: SPR BIAcore T200, Ab captured, 25C
T7 construct: Extracellular domain with both Ig-like and both fibronectin-like domains; also called human MerTK extracellular domain
T7 sequence: T2 sequence
Description: as §2, §3

mouse MerTK [5] = biological target: T1, mouse MerTK; experiment: SPR BIAcore T200, Ab captured, 25C
Description: as §1

human MerTK [6] = biological target: T2, human MerTK; experiment: SPR BIAcore T200, Ab captured, 25C
Description: as §1

cynomolgus monkey MerTK [7] = biological target: T4, cynomolgus monkey MerTK; experiment: SPR BIAcore T200, Ab captured, 25C
Description: as §1

B1: h10C3.v14 (antibody, V domains shown)
VH: EVQLVESGGGLVQPGGSLRLSCAASGFSLSGYTMGWVRQAPGKGLEYIGVISSGGTTYYTNWAKGRFTISKDNSKNTLYLQMGSLRAEDMAVYYCARVAFTAYGGGGFPTLHRLDLWGQGTLVTVSS
VL: DQVLTQSPDSLAVSLGERATINCQSSESVYNNDYLAWYQQKPGQPPKLLIYSASTLASGVPDRFSGSGSGTDFTLTISSLQAEDVAVYYCAGGYLGNNVFGGGTKVEIK
notes: Humanized, human IgG1; also called 10C3 Humanized polished mAb
B1 gave a Kd (mouse MerTK [1]) of 0.9 nM, a Kd (human MerTK [2]) of 6.9 nM and a Kd (rat MerTK) of 2.4 nM. The Kd (cynomolgus monkey MerTK [3]) was 3.2 nM, the “IC50 (nM), efferocytosis by human macrophages, Average (3 Donors)” value [4] was 0.95 nM and the “IC50 (nM), efferocytosis by human macrophages, Donor A” value [4] was 0.52 nM. For the same binder, the “IC50 (nM), efferocytosis by human macrophages, Donor B” value [4] was 1.2 nM, the “IC50 (nM), efferocytosis by human macrophages, Donor C” value [4] was 1.2 nM and the “Max Inhibition (%), efferocytosis by human macrophages, Average (3 Donors)” value [4] was 61%. The “Max Inhibition (%), efferocytosis by human macrophages, Donor A” value [4] was 64%, the “Max Inhibition (%), efferocytosis by human macrophages, Donor B” value [4] was 58% and the “Max Inhibition (%), efferocytosis by human macrophages, Donor C” value [4] was 62%.

B2: Rbt9E3.FN (antibody, V domains shown)
VH: QSVEESGGRLVTPGTPLTLTCTVSGFSLSSNAMSWVRQAPGKGLEWIGIISSSGSTYSASWAKGRFTISKTSTTMDLKITSPTTEDTATYFCARVGFFVGYGAYDYGIIHRLDLWGQGTLVTVSS
VL: AAVLTQTPSPVSAAVGGTVSISCQSSKSIYNNNWLSWYQQKPGQPPKLLIYDASDLASGVPSRFEGSGSGTEFTLTISDLECDDAATYYCAGGYSGDSDYAFGGGTEVVVK
notes: Recombinant rabbit monoclonal antibody, Expi293, protein A purified
For B2, the Kd (MuMER (E23-S496)) was 0.6 nM, the Kd (HuMER (R26-A499)) was 2.6 nM and the Kd (mouse MerTK [1]) was 0.6 nM. The Kd (human MerTK [2]) was 5.1 nM, the Kd (rat MerTK) was 1.7 nM and the Kd (cynomolgus monkey MerTK [3]) was 2.5 nM. For the same binder, the Kd (mouse MerTK [5]) was 0.6 nM, the Kd (human MerTK [6]) was 2.6 nM and the Kd (cynomolgus monkey MerTK [7]) was 2.5 nM.

B3: Rbt10F7 (antibody, V domains shown)
VH: QSVEESGGRLVTPGTPLTLTCTVSGFSLSGYAMSWVRQAPGKGLEYIGVISSSGSSYYPSWAKGRFTISKTSTTVDLQITSPTTEDTATYFCARVQFYVGYAVYGYGIIDRLDLWGQGTLVTVSS
VL: AAVLTQTPSPVSATMGGTVSISCQSSKSVYNNNWLSWYQQKPGQPPKLLIYRASTLESGVPSRFKGSGSGTQFTLTISDVHCDDAATYFCAGGYSSSSSANAFGGGTEVVVK
notes: as for B2
For B3, the Kd (MuMER (E23-S496)) was 4.1 nM, the Kd (HuMER (R26-A499)) was 7 nM and the Kd (mouse MerTK [1]) was 2.4 nM. The Kd (human MerTK [2]) was 10.9 nM, the Kd (rat MerTK) was 5.8 nM and the Kd (cynomolgus monkey MerTK [3]) was 5.1 nM. It also gave a Kd (mouse MerTK [5]) of 4.1 nM, a Kd (human MerTK [6]) of 7 nM and a Kd (cynomolgus monkey MerTK [7]) of 4.7 nM.
